This note sets out measurements from PMC8183418.

In data set [1] the target is T1, ISG20 (UniProt Q96AZ6 1-181). Kind of data set: EMSA.
The target of data set [2] is T1, ISG20. Kind of data set: EMSA. This is another data set of the same source.

Read-outs that look alike come from different tables or passages of the source.

T1 sequence (Q96AZ6 whole entry): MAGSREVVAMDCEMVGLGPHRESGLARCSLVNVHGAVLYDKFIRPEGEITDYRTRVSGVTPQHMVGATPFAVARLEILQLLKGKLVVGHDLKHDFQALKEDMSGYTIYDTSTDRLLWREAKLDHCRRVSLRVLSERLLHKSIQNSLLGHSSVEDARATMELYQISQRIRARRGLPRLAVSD

Take GGTUGTUUGUAGGATTUAGUGUUG (ssDNA, all deoxycytidines replaced by deoxyuridine; U = dU) [035: dU-containing (-) ssDNA]: the binding result with ISG20 [1] is “binds”.

On to CGGCGCTGAATCCTGCGGACGACC (ssDNA) [036: (+) ssDNA], for which the binding result with ISG20 [2] was “binds”.

With GGTCGTCCGCAGGATTCAGCGCCG (ssDNA) [033: (-) ssDNA], the binding result with ISG20 [2] is on record as “binds”.
